Article PMC10784468 (Nature Communications, 2024)
Like-named read-outs stand apart in the source and are kept apart here. Positions of bridges follow the written chain, without caps; N, C: chain ends. Residues, ends and D or L forms follow the SMILES beside them. *: point of attachment. X1 = O=C(O)c1ccc(-c2c3nc(c(-c4ccc(C(=O)O)cc4)c4ccc([nH]4)c(-c4ccc(C(=O)*)cc4)c4nc(c(-c5ccc(C(=O)O)cc5)c5ccc2[nH]5)C=C4)C=C3)cc1; X2 = O=C(O)C/C(=C/C(=O)*)C(=O)O

Columns and labels:
EJ cells = assay: Cellular imaging (uptake) by CLSM; assay type: cell-based; conditions: Cy7-labeled, 40 μM, 2 h
Protocol: Initially, EJ cells (5 × 10^5) were cultured in confocal dish with a CO2 incubator overnight at 37 °C. Subsequently, the EJ cells were incubated with Cy labeled Gi-F-CAA (40 μM, pH = 7.4) and Cy labeled Gi-F-CAA (40 μM, pH = 6.5) for 2 h followed by washing with PBS for three times.

786-O xenograft tumors = assay: In vivo antitumor evaluation in large tumor model (786-O); design: species or system BALB/c nude mice; conditions: six i.v. injections at 2-days intervals, Gi-F-CAA 8 mg/kg, Bevacizumab 5 mg/kg
[1] = Protocol: The main organs (heart, liver, spleen, lung, kidney and intestine) of healthly BALB/c nude mice (~8 weeks old, 18 g) were collected under euthanasia after treatment with PBS and Gi-F-CAA (8, 12 and 16 mg/kg in 100 μL PBS) for 1 day. Afterwards, the histology evaluation by Hematoxylin and Eosin (H&E) Staining was carried out by Servicebio Technology Co., Ltd. (Wuhan, China). Meanwhile, the whole blood and serum of healthly BALB/c nude mice (~8 weeks old, 18 g) were collected after treatment with PBS and Gi-F-CAA (8, 12 and 16 mg/kg in 100 μL PBS) for 1 days. The blood biochemistry analysis was performed with Hitachi Automatic Biochemical Analyzer 7100. The blood routine analysis was carried out by Vital River Laboratory Animal Technology Co., Ltd. (Beijing, China).
[2] = healthy mice, i.v. 8, 12 and 16 mg/kg, 1 day post-injection

For `CC(C)C[C@H](NC(=O)c1ccc(-c2c3nc(c(-c4ccc(C(=O)O)cc4)c4ccc([nH]4)c(-c4ccc(C(=O)O)cc4)c4nc(c(-c5ccc(C(=O)O)cc5)c5ccc2[nH]5)C=C4)C=C3)cc1)C(=O)N[C@@H](CCCCNC(=O)/C=C(/CC(=O)O)C(=O)O)C(=O)N[C@@H](CC(C)C)C(=O)N[C@@H](CCCCN)C(=O)N[C@@H](CC(C)C)C(=O)N[C@@H](CCCCNC(=O)/C=C(/CC(=O)O)C(=O)O)C(=O)NCC(=O)N[C@@H](C)C(=O)N[C@H]1CSSC[C@@H](C(=O)N2CCC[C@H]2C(=O)N[C@H](C(=O)O)C(C)C)NC(=O)[C@@H]2CCCN2C(=O)[C@H](Cc2ccc(O)cc2)NC(=O)[C@H](CC(C)C)NC(=O)[C@@H]2CCCN2C(=O)[C@H](CC(C)C)NC(=O)[C@H](Cc2c[nH]c3ccccc23)NC(=O)[C@H](CC(N)=O)NC1=O` [Gi-F-CAA] (X1-LK(X2)LKLK(X2)GACNWLPLYPCPV-OH; disulfide 9-17; C-terminus assumed), the “cellular uptake (CLSM) at pH 6.5” value (EJ cells; pH 6.5) was “obvious fluorescence signal was observed in the cytoplasm”, the “cellular uptake (CLSM) at pH 7.4” value (EJ cells; pH 7.4) was “barely detected” and the “tumor volume course in large tumors (~500 mm^3)” value (786-O xenograft tumors) was “declining tendency for 10 days and maintained a long-termed tumor growth inhibition”. The ALP ([1]; 8 mg/kg, mice 1) was 152 U/L, the ALT ([1]; 8 mg/kg, mice 1) was 62 U/L and the AST ([1]; 8 mg/kg, mice 1) was 183 U/L. For the same molecule, the BUN ([1]; 8 mg/kg, mice 1) was 13.2 mmol/L, the CREA ([1]; 8 mg/kg, mice 1) was 30.8 µmol/L and the HGB ([1]; 8 mg/kg, mice 1) was 15.7 g/dL. The NEUT ([1]; 8 mg/kg, mice 1) was 0.4 109/L, the PLT ([1]; 8 mg/kg, mice 1) was 985 109/L and the RBC ([1]; 8 mg/kg, mice 1) was 10.6 1012/L. For the same molecule, the WBC ([1]; 8 mg/kg, mice 1) was 1.8 109/L, the ALP ([1]; 8 mg/kg, mice 2) was 159 U/L and the ALT ([1]; 8 mg/kg, mice 2) was 60 U/L. The AST ([1]; 8 mg/kg, mice 2) was 184 U/L, the BUN ([1]; 8 mg/kg, mice 2) was 14.42 mmol/L and the CREA ([1]; 8 mg/kg, mice 2) was 28.8 µmol/L. For the same molecule, the HGB ([1]; 8 mg/kg, mice 2) was 15.4 g/dL, the NEUT ([1]; 8 mg/kg, mice 2) was 0.3 109/L and the PLT ([1]; 8 mg/kg, mice 2) was 1198 109/L. The RBC ([1]; 8 mg/kg, mice 2) was 10.1 1012/L, the WBC ([1]; 8 mg/kg, mice 2) was 1.5 109/L and the ALP ([1]; 8 mg/kg, mice 3) was 145 U/L. For the same molecule, the ALT ([1]; 8 mg/kg, mice 3) was 56 U/L, the AST ([1]; 8 mg/kg, mice 3) was 193 U/L and the BUN ([1]; 8 mg/kg, mice 3) was 13.94 mmol/L. The CREA ([1]; 8 mg/kg, mice 3) was 31.6 µmol/L, the HGB ([1]; 8 mg/kg, mice 3) was 15.9 g/dL and the NEUT ([1]; 8 mg/kg, mice 3) was 0.3 109/L. For the same molecule, the PLT ([1]; 8 mg/kg, mice 3) was 1073 109/L, the RBC ([1]; 8 mg/kg, mice 3) was 9 1012/L and the WBC ([1]; 8 mg/kg, mice 3) was 1.7 109/L. It also gave an ALP ([1]; 8 mg/kg, mice 4) of 159 U/L, an ALT ([1]; 8 mg/kg, mice 4) of 63 U/L and an AST ([1]; 8 mg/kg, mice 4) of 180 U/L. It also gave a BUN ([1]; 8 mg/kg, mice 4) of 13.15 mmol/L, a CREA ([1]; 8 mg/kg, mice 4) of 31 µmol/L and an HGB ([1]; 8 mg/kg, mice 4) of 15.3 g/dL. For the same molecule, the NEUT ([1]; 8 mg/kg, mice 4) was 0.4 109/L, the PLT ([1]; 8 mg/kg, mice 4) was 1117 109/L and the RBC ([1]; 8 mg/kg, mice 4) was 10 1012/L. The WBC ([1]; 8 mg/kg, mice 4) was 2 109/L, the ALP ([1]; 12 mg/kg, mice 1) was 150 U/L and the ALT ([1]; 12 mg/kg, mice 1) was 61 U/L. For the same molecule, the AST ([1]; 12 mg/kg, mice 1) was 192 U/L, the BUN ([1]; 12 mg/kg, mice 1) was 13.27 mmol/L and the CREA ([1]; 12 mg/kg, mice 1) was 30 µmol/L. For the same molecule, the HGB ([1]; 12 mg/kg, mice 1) was 15.2 g/dL, the NEUT ([1]; 12 mg/kg, mice 1) was 0.4 109/L and the PLT ([1]; 12 mg/kg, mice 1) was 991 109/L. The RBC ([1]; 12 mg/kg, mice 1) was 9 1012/L, the WBC ([1]; 12 mg/kg, mice 1) was 1.9 109/L and the ALP ([1]; 12 mg/kg, mice 2) was 145 U/L. The ALT ([1]; 12 mg/kg, mice 2) was 63 U/L, the AST ([1]; 12 mg/kg, mice 2) was 191 U/L and the BUN ([1]; 12 mg/kg, mice 2) was 13.11 mmol/L. The CREA ([1]; 12 mg/kg, mice 2) was 28.5 µmol/L, the HGB ([1]; 12 mg/kg, mice 2) was 15.4 g/dL and the NEUT ([1]; 12 mg/kg, mice 2) was 0.3 109/L. For the same molecule, the PLT ([1]; 12 mg/kg, mice 2) was 1110 109/L, the RBC ([1]; 12 mg/kg, mice 2) was 9.3 1012/L and the WBC ([1]; 12 mg/kg, mice 2) was 1.6 109/L. It also gave an ALP ([1]; 12 mg/kg, mice 3) of 153 U/L, an ALT ([1]; 12 mg/kg, mice 3) of 60 U/L and an AST ([1]; 12 mg/kg, mice 3) of 190 U/L. It also gave a BUN ([1]; 12 mg/kg, mice 3) of 12.9 mmol/L, a CREA ([1]; 12 mg/kg, mice 3) of 30.6 µmol/L and an HGB ([1]; 12 mg/kg, mice 3) of 15.6 g/dL. The NEUT ([1]; 12 mg/kg, mice 3) was 0.3 109/L, the PLT ([1]; 12 mg/kg, mice 3) was 1144 109/L and the RBC ([1]; 12 mg/kg, mice 3) was 10 1012/L. For the same molecule, the WBC ([1]; 12 mg/kg, mice 3) was 1.9 109/L, the ALP ([1]; 12 mg/kg, mice 4) was 146 U/L and the ALT ([1]; 12 mg/kg, mice 4) was 60 U/L. For the same molecule, the AST ([1]; 12 mg/kg, mice 4) was 190 U/L, the BUN ([1]; 12 mg/kg, mice 4) was 13.29 mmol/L and the CREA ([1]; 12 mg/kg, mice 4) was 29.9 µmol/L. For the same molecule, the HGB ([1]; 12 mg/kg, mice 4) was 16.4 g/dL, the NEUT ([1]; 12 mg/kg, mice 4) was 0.3 109/L and the PLT ([1]; 12 mg/kg, mice 4) was 1087 109/L. The RBC ([1]; 12 mg/kg, mice 4) was 10.1 1012/L, the WBC ([1]; 12 mg/kg, mice 4) was 2.1 109/L and the ALP ([1]; 16 mg/kg, mice 1) was 150 U/L. For the same molecule, the ALT ([1]; 16 mg/kg, mice 1) was 57 U/L, the AST ([1]; 16 mg/kg, mice 1) was 182 U/L and the BUN ([1]; 16 mg/kg, mice 1) was 14.18 mmol/L. For the same molecule, the CREA ([1]; 16 mg/kg, mice 1) was 31.7 µmol/L, the HGB ([1]; 16 mg/kg, mice 1) was 15.7 g/dL and the NEUT ([1]; 16 mg/kg, mice 1) was 0.4 109/L. The PLT ([1]; 16 mg/kg, mice 1) was 1194 109/L, the RBC ([1]; 16 mg/kg, mice 1) was 9.6 1012/L and the WBC ([1]; 16 mg/kg, mice 1) was 2 109/L. It also gave an ALP ([1]; 16 mg/kg, mice 2) of 145 U/L, an ALT ([1]; 16 mg/kg, mice 2) of 56 U/L and an AST ([1]; 16 mg/kg, mice 2) of 188 U/L. It also gave a BUN ([1]; 16 mg/kg, mice 2) of 13.21 mmol/L, a CREA ([1]; 16 mg/kg, mice 2) of 29.4 µmol/L and an HGB ([1]; 16 mg/kg, mice 2) of 15.3 g/dL. For the same molecule, the NEUT ([1]; 16 mg/kg, mice 2) was 0.3 109/L, the PLT ([1]; 16 mg/kg, mice 2) was 984 109/L and the RBC ([1]; 16 mg/kg, mice 2) was 10.5 1012/L. The WBC ([1]; 16 mg/kg, mice 2) was 1.5 109/L, the ALP ([1]; 16 mg/kg, mice 3) was 148 U/L and the ALT ([1]; 16 mg/kg, mice 3) was 64 U/L. For the same molecule, the AST ([1]; 16 mg/kg, mice 3) was 180 U/L, the BUN ([1]; 16 mg/kg, mice 3) was 12.87 mmol/L and the CREA ([1]; 16 mg/kg, mice 3) was 28.9 µmol/L. For the same molecule, the HGB ([1]; 16 mg/kg, mice 3) was 15.1 g/dL, the NEUT ([1]; 16 mg/kg, mice 3) was 0.3 109/L and the PLT ([1]; 16 mg/kg, mice 3) was 1087 109/L. The RBC ([1]; 16 mg/kg, mice 3) was 10.6 1012/L, the WBC ([1]; 16 mg/kg, mice 3) was 1.9 109/L and the ALP ([1]; 16 mg/kg, mice 4) was 146 U/L. It also gave an ALT ([1]; 16 mg/kg, mice 4) of 59 U/L, an AST ([1]; 16 mg/kg, mice 4) of 193 U/L and a BUN ([1]; 16 mg/kg, mice 4) of 12.98 mmol/L. For the same molecule, the CREA ([1]; 16 mg/kg, mice 4) was 32.5 µmol/L, the HGB ([1]; 16 mg/kg, mice 4) was 15 g/dL and the NEUT ([1]; 16 mg/kg, mice 4) was 0.4 109/L. The PLT ([1]; 16 mg/kg, mice 4) was 1072 109/L, the RBC ([1]; 16 mg/kg, mice 4) was 9.8 1012/L and the WBC ([1]; 16 mg/kg, mice 4) was 1.9 109/L. The “blood routine examination (WBC, RBC, PLT, LYMPH, NEUT)” value ([1]; healthy mice, i.v. 8, 12 and 16 mg/kg, 1 day) was “comparable with that of PBS group”, the “hepatic and renal function markers (ALT, AST, ALP, BUN, CRE)” value [1, 2] was “normal ranges of values” and the “histopathology (H&E) of major organs” value [1, 2] was “no remarkable histopathological damages”.
